Measurements reported in PMC8640019.

How the values were obtained:
Assay in all cases: SPR
Conditions in all cases: remark: other sources report otherwise
[1] = substrate: CIS R78G-EloB/C (human), Q9NSE2
[2] = target: CIS-Elo B/C + F3 (human), Q9NSE2
[3] = substrate: CIS R78G-EloB/C + F3 (human), Q9NSE2
[4] = substrate: CIS R78G, F116L-EloB/C (human), Q9NSE2
[5] = substrate: CIS F74L-EloB/C + F3 (human), Q9NSE2
[6] = substrate: CIS F74, F116L-EloB/C + F3 (human), Q9NSE2
[7] = substrate: CIS R78G, F116L-EloB/C + F3 (human), Q9NSE2
[8] = substrate: CIS F74, F116L-EloB/C (human), Q9NSE2
[9] = substrate: CIS F116L-EloB/C (human), Q9NSE2
[10] = target: SOCS2 FL + F3 (human), O14508
SOCS2 FL + F3 (human), O14508, sequence (O14508 whole entry, chain 1 of 3): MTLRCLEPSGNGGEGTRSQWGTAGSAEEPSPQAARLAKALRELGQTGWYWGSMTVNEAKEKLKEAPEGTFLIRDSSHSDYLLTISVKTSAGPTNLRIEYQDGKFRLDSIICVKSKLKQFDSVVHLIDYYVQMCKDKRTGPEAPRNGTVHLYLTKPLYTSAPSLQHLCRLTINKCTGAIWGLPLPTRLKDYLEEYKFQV
SOCS2 FL + F3 (human), O14508, sequence (Q15370 whole entry, chain 2 of 3, further chain): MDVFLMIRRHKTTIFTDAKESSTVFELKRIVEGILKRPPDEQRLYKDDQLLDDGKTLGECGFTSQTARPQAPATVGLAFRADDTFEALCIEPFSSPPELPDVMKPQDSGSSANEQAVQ
SOCS2 FL + F3 (human), O14508, sequence (Q15369 17-112, chain 3 of 3, further chain): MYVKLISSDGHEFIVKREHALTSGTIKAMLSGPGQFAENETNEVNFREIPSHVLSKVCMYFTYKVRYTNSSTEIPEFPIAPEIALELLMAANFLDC

Binder: PVPDYTSIHIV (here or on the partner: phosphotyrosine at 595) [GHR pY595 peptide]
- IC50 [1]: 6.7 µM
- IC50 [2]: 4.3 µM
- IC50 [3]: 2 µM
- IC50 [4]: 20 µM
- IC50 [5]: 4.2 µM
- IC50 [6]: 3.7 µM
- IC50 [7]: 8.8 µM
- IC50 [8]: 7 µM
- IC50 [9]: 6.6 µM
- IC50 [10]: 0.2 µM
